Consider 5 molecules from US20110091994A1, “Methods for Screening Compounds for Treating and/or Preventing an Hepatitis C Virus Infection” (priority 2008, published 2011).

What all share (type): binding, HCV genotype 1b, isolate con1
In test [1] the test system is HCV ORFs (Gal4-DB fusions). The conditions noted are these: human protein listed by gene symbol; the value names the HCV protein it interacts with.
The target of test [2] is T1, HCV ORFs (Gal4-DB fusions) (Hepatitis C virus genotype 1b, UniProt Q9WMX2).
T1 construct: expressed in transfected cells; host or cells: Saccharomyces cerevisiae MAV203 (IMAP1) / AH109 (IMAP2)
The conditions noted are these: human protein as prey.

In test [3] the target is T2, GST-tagged viral proteins (Hepatitis C virus genotype 1b, UniProt Q9WMX2).
T2 construct: expressed in transfected cells; host or cells: HEK-293T
T2 sequence (Q9WMX2 1973-2419): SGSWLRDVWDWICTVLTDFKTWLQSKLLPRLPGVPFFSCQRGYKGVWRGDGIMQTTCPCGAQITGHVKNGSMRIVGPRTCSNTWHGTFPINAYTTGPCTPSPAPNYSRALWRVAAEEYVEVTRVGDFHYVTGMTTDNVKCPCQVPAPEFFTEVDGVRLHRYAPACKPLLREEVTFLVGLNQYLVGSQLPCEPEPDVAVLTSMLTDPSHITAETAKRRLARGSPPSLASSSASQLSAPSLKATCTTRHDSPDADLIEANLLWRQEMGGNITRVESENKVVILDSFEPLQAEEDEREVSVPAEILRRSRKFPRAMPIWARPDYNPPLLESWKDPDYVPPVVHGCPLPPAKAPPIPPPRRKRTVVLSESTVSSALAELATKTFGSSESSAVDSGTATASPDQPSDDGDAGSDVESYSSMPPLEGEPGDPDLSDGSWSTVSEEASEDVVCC
Kind of test: Validation by co-affinity purification (CoAP). Further details: key: +: IMAP validation; −: not validated; NA: non assayable due to default of protein expression or to cellular protein directly interacting with GST. As to conditions: interaction with HCV protein NS5A. The text has this: C. Validation of Y2H interactions by co-affinity purification assay. Nine co-AP positive assays are shown, representing: NS5A-SORBS2 (1), NS3-CALCOCO2 (2), NS5A-BIN1 (3), NS5A-MOBK1B (4), NS5A-EFEMP1 (5), NS3-PSMB9 and NS5A-PSMB9 (6), NS5A-PPPIRI3L (7), NS3-RASAL2 (8). After pull-down with GST tagged viral baits (+) or with negative control GST alone (−), cellular preys are identified with anti-Flag antibody. Anti-GST antibody identifies either GST alone or GST-tagged viral baits. Expression of cellular preys in cell lysate is controlled by anti-Flag (bottom panel). […]
A random pool of 59 IMAP Y2H interactions was chosen for CoAP assays. Cellular ORFs (interacting domains found in Y2H screens) were cloned by recombinational cloning from a pool of human cDNA library or the MGC cDNA plasmids using KOD polymerase (Toyobo) into pDONR207 (Invitrogen). After validation by sequencing, these ORFs were transferred to pCi-neo-3xFLAG gateway-converted, and HCV ORFs were transferred into pDEST27 (GST fusion in N-term). HEK-293T cells were then co-transfected (JetPei, Polyplus) by each pair of plasmid encoding interacting proteins. Controls are GST alone against 3xFLAG-tagged preys. Two days after transfection, cells were harvested and lysed (0.5% NP-40, 20 mM Tris-HCl (pH 8.0), 180 mM NaCl, 1 mM EDTA, and complete protease inhibitor cocktail). Cell lysates were cleared by centrifugation for 20 min at 13,000 rpm at 4° C. and soluble protein complexes were purified using Glutathione Sepharose 4B beads (GE Healthcare). Beads were then washed extensively four times with lysis buffer and proteins were separated on SDS-PAGE and transferred to nitrocellulose membrane. GST-tagged viral proteins and 3xFLAG-tagged cellular proteins were detected using standard immunoblotting techniques using anti-GST (Covance) and anti-FLAG M2 (Sigma) monoclonal antibodies (21).

Like-named read-outs stand apart in the source and are kept apart here.
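Wherever IMAP Y2H IMAP2 (number of IST) is given: yeast two-hybrid screens using HCV genotype 1b proteins fused to Gal4-DB as baits against prey cDNA libraries from human spleen and foetal brain, IMAP1 via transformation and IMAP2 via mating.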
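Wherever Interaction with viral protein is given: yeast two-hybrid screens using HCV genotype 1b proteins fused to Gal4-DB as baits against prey cDNA libraries from human spleen and foetal brain, IMAP1 via transformation and IMAP2 via mating.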

B1: ITGAL (protein, UniProt P20701 26-1170, looked up)
Integrin alpha-L: YNLDVRGARSFSPPRAGRHFGYRVLQVGNGVIVGAPGEGNSTGSLYQCQSGTGHCLPVTLRGSNYTSKYLGMTLATDPTDGSILACDPGLSRTCDQNTYLSGLCYLFRQNLQGPMLQGRPGFQECIKGNVDLVFLFDGSMSLQPDEFQKILDFMKDVMKKLSNTSYQFAAVQFSTSYKTEFDFSDYVKRKDPDALLKHVKHMLLLTNTFGAINYVATEVFREELGARPDATKVLIIITDGEATDSGNIDAAKDIIRYIIGIGKHFQTKESQETLHKFASKPASEFVKILDTFEKLKDLFTELQKKIYVIEGTSKQDLTSFNMELSSSGISADLSRGHAVVGAVGAKDWAGGFLDLKADLQDDTFIGNEPLTPEVRAGYLGYTVTWLPSRQKTSLLASGAPRYQHMGRVLLFQEPQGGGHWSQVQTIHGTQIGSYFGGELCGVDVDQDGETELLLIGAPLFYGEQRGGRVFIYQRRQLGFEEVSELQGDPGYPLGRFGEAITALTDINGDGLVDVAVGAPLEEQGAVYIFNGRHGGLSPQPSQRIEGTQVLSGIQWFGRSIHGVKDLEGDGLADVAVGAESQMIVLSSRPVVDMVTLMSFSPAEIPVHEVECSYSTSNKMKEGVNITICFQIKSLIPQFQGRLVANLTYTLQLDGHRTRRRGLFPGGRHELRRNIAVTTSMSCTDFSFHFPVCVQDLISPINVSLNFSLWEEEGTPRDQRAQGKDIPPILRPSLHSETWEIPFEKNCGEDKKCEANLRVSFSPARSRALRLTAFASLSVELSLSNLEEDAYWVQLDLHFPPGLSFRKVEMLKPHSQIPVSCEELPEESRLLSRALSCNVSSPIFKAGHSVALQMMFNTLVNSSWGDSVELHANVTCNNEDSDLLEDNSATTIIPILYPINILIQDQEDSTLYVSFTPKGPKIHQVKHMYQVRIQPSIHDHNIPTLEAVVGVPQPPSEGPITHQWSVQMEPPVPCHYEDLERLPDAAEPCLPGALFRCPVVFRQEILVQVIGTLELVGEIEASSMFSLCSSLSISFNSSKHFHLYGSNASLAQVVMKVDVVYEKQMLYLYVLSGIGGLLLLLLIFIVLYKVGFFKRNLKEKMEAGRGVPNGIPAEDSEQLASGQEAGDPGCLKPLHEKDSESGGGKD
With B1, the “Interaction with viral protein” value in test [1] was “NS5A”. In addition, the “IMAP Y2H IMAP2 (number of IST)” value in test [2] (HCV protein NS5A as bait) was found to be 1. Further, the CoAP result in test [3] is on record as “+”.

B2: SORBS2 (protein, UniProt O94875 1-1100, looked up)
Sorbin and SH3 …: MSYYQRPFSPSAYSLPASLNSSIVMQHGTSLDSTDTYPQHAQSLDGTTSSSIPLYRSSEEEKRVTVIKAPHYPGIGPVDESGIPTAIRTTVDRPKDWYKTMFKQIHMVHKPDDDTDMYNTPYTYNAGLYNPPYSAQSHPAAKTQTYRPLSKSHSDNSPNAFKDASSPVPPPHVPPPVPPLRPRDRSSTEKHDWDPPDRKVDTRKFRSEPRSIFEYEPGKSSILQHERPASLYQSSIDRSLERPMSSASMASDFRKRRKSEPAVGPPRGLGDQSASRTSPGRVDLPGSSTTLTKSFTSSSPSSPSRAKGGDDSKICPSLCSYSGLNGNPSSELDYCSTYRQHLDVPRDSPRAISFKNGWQMARQNAEIWSSTEETVSPKIKSRSCDDLLNDDCDSFPDPKVKSESMGSLLCEEDSKESCPMAWGSPYVPEVRSNGRSRIRHRSARNAPGFLKMYKKMHRINRKDLMNSEVICSVKSRILQYESEQQHKDLLRAWSQCSTEEVPRDMVPTRISEFEKLIQKSKSMPNLGDDMLSPVTLEPPQNGLCPKRRFSIEYLLEEENQSGPPARGRRGCQSNALVPIHIEVTSDEQPRAHVEFSDSDQDGVVSDHSDYIHLEGSSFCSESDFDHFSFTSSESFYGSSHHHHHHHHHHHRHLISSCKGRCPASYTRFTTMLKHERARHENTEEPRRQEMDPGLSKLAFLVSPVPFRRKKNSAPKKQTEKAKCKASVFEALDSALKDICDQIKAEKKRGSLPDNSILHRLISELLPDVPERNSSLRALRRSPLHQPLHPLPPDGAIHCPPYQNDCGRMPRSASFQDVDTANSSCHHQDRGGALQDRESPRSYSSTLTDMGRSAPRERRGTPEKEKLPAKAVYDFKAQTSKELSFKKGDTVYILRKIDQNWYEGEHHGRVGIFPISYVEKLTPPEKAQPARPPPPAQPGEIGEAIAKYNFNADTNVELSLRKGDRVILLKRVDQNWYEGKIPGTNRQGIFPVSYVEVVKKNTKGAEDYPDPPIPHSYSSDRIHSLSSNKPQRPVFTHENIQGGGEPFQALYNYTPRNEDELELRESDVIDVMEKCDDGWFVGTSRRTKFFGTFPGNYVKRL
With B2, in test [1], the “Interaction with viral protein” value is “NS5A”. The “IMAP Y2H IMAP2 (number of IST)” value in test [2] (HCV protein NS5A as bait) was found to be 8. Also, the CoAP entry in test [3] was “+”.

B3: MOBK1B (protein, UniProt Q7L9L4 2-216, looked up)
MOB kinase activator 1B: SFLFGSRSSKTFKPKKNIPEGSHQYELLKHAEATLGSGNLRMAVMLPEGEDLNEWVAVNTVDFFNQINMLYGTITDFCTEESCPVMSAGPKYEYHWADGTNIKKPIKCSAPKYIDYLMTWVQDQLDDETLFPSKIGVPFPKNFMSVAKTILKRLFRVYAHIYHQHFDPVIQLQEEAHLNTSFKHFIFFVQEFNLIDRRELAPLQELIEKLTSKDR
Regarding B3, the “Interaction with viral protein” value in test [1] is “NS5A”. Also, the figures for the “IMAP Y2H IMAP2 (number of IST)” value in test [2] (HCV protein NS5A as bait) and in test [2] (HCV protein NS5B as bait) were 5 and 3, respectively. In addition, in test [3], the CoAP entry is listed as “+”.

B4: GPS2 (protein, UniProt Q13227 1-327, looked up)
G protein pathway suppressor 2: MPALLERPKLSNAMARALHRHIMMERERKRQEEEEVDKMMEQKMKEEQERRKKKEMEERMSLEETKEQILKLEEKLLALQEEKHQLFLQLKKVLHEEEKRRRKEQSDLTTLTSAAYQQSLTVHTGTHLLSMQGSPGGHNRPGTLMAADRAKQMFGPQVLTTRHYVGSAAAFAGTPEHGQFQGSPGGAYGTAQPPPHYGPTQPAYSPSQQLRAPSAFPAVQYLSQPQPQPYAVHGHFQPTQTGFLQPGGALSLQKQMEHANQQTGFSDSSSLRPMHPQALHPAPGLLASPQLPVQMQPAGKSGFAATSQPGPRLPFIQHSQNPRFYHK
As to B4, in test [1], the “Interaction with viral protein” value is given as “NS5A”. The “IMAP Y2H IMAP2 (number of IST)” value in test [2] (HCV protein NS5A as bait) was found to be 1. Further, the CoAP result in test [3] is recorded as “+”.

B5: GOLGA2 (protein, UniProt Q08379 1-1002, looked up)
Golgin subfamily A member 2: MWPQPRLPPRPAMSEETRQSKLAAAKKKLREYQQRNSPGVPTGAKKKKKIKNGSNPETTTSGGCHSPEDTPKDNAATLQPSDDTVLPGGVPSPGASLTSMAASQNHDADNVPNLMDETKTFSSTESLRQLSQQLNGLVCESATCVNGEGPASSANLKDLESRYQQLAVALDSSYVTNKQLNITIEKLKQQNQEITDQLEEEKKECHQKQGALREQLQVHIQTIGILVSEKAELQTALAHTQHAARQKEGESEDLASRLQYSRRRVGELERALSAVSTQQKKADRYNKELTKERDALRLELYKNTQSNEDLKQEKSELEEKLRVLVTEKAGMQLNLEELQKKLEMTELLLQQFSSRCEAPDANQQLQQAMEERAQLEAHLGQVMESVRQLQMERDKYAENLKGESAMWRQRMQQMSEQVHTLREEKECSMSRVQELETSLAELRNQMAEPPPPEPPAGPSEVEQQLQAEAEHLRKELEGLAGQLQAQVQDNEGLSRLNREQEERLLELERAAELWGEQAEARRQILETMQNDRTTISRALSQNRELKEQLAELQSGFVKLTNENMEITSALQSEQHVKRELGKKLGELQEKLSELKETVELKSQEAQSLQQQRDQYLGHLQQYVAAYQQLTSEKEVLHNQLLLQTQLVDQLQQQEAQGKAVAEMARQELQETQERLEAATQQNQQLRAQLSLMAHPGEGDGLDREEEEDEEEEEEEAVAVPQPMPSIPEDLESREAMVAFFNSAVASAEEEQARLRGQLKEQRVRCRRLAHLLASAQKEPEAAAPAPGTGGDSVCGETHRALQGAMEKLQSRFMELMQEKADLKERVEELEHRCIQLSGETDTIGEYIALYQSQRAVLKERHREKEEYISRLAQDKEEMKVKLLELQELVLRLVGDRNEWHGRFLAAAQNPADEPTSGAPAPQELGAANQQGDLCEVSLAGSVEPAQGEAREGSPRDNPTAQQIMQLLREMQNPRERPGLGSNPCIPFFYRADENDEVKITVI
For B5, the “Interaction with viral protein” value in test [1] is listed as “NS5A”. Besides, in test [2] (HCV protein NS5A as bait), the “IMAP Y2H IMAP2 (number of IST)” value amounted to 15. The CoAP result in test [3] was “+”.
